± gives the uncertainty stated by the source.
Experiment: self-splicing fitness, log relative to wild type (ln ratio); higher = more splicing; Tetrahymena group I intron in knt gene, E. coli kanamycin selection, DiMSum; sequences stand for … in CUCUCU…GGAGGGAAAAGUUAUCAGGCAUGCACCUGGUAGCUAGUCUUUAAACCAAUAGAUUGCAUCGGUUUAAAAGGCAAGACCGUCAAAUUGCGGGAAAGGGGUCAACAGCCGUUCAGUACCAAGUCUCAGGGGAAACUUUGAGAUGGCCUUGCAAAGGGUAUGGUAAUAAGCUGACGGACAUGGUCCUAACCACGCAGCCAAGUCCUAAGUCAACAGAUCUUCUGUUGAUAUGGAUGCAGUUCACAGACUAAAUGUCGGUCGGGGAAGAUGUAUUCUUCUCAUAAGAUAUAGUCGGACCUCUCCUUAAUGGGAGCUAGCGGAUGAAGUGAUGCAACACUGGAGCCGCUGGGAACUAAUUUGUAUGCGAAAGUAUAUUGAUUAGUUUUGGAGUACUCGUGGUCG
Summary of the method: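 Library with all eight P1ex-region intron nucleotides randomised, intron inside the knt kanamycin-resistance gene on pET-22b(+), in E. coli BL21(DE3). Cells grew overnight at 37°C or 30°C on LB agar with or without 25 μg/mL kanamycin (plus 100 μg/mL carbenicillin, 50 μM IPTG, 0.2% rhamnose), in six replicate transformations. Pooled colonies were amplicon-sequenced on Illumina HiSeq 2500. DiMSum fitness is the error-weighted combination of wild-type-normalised replicate fold changes, kanamycin versus none.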

| Sequence | self-splicing fitness (ln) (30 °C) | self-splicing fitness (ln) (37 °C) |
| --- | --- | --- |
| GGUCAGCAAUAUUACGCGCC | 0.245 ± 0.39 | – |
| GGUCAGCAAUAUUACGCUGC | -1.88 ± 0.25 | -3.17 ± 0.47 |
| GGUCAGCAAUAUUACGGAGC | -1.4 ± 0.18 | -0.82 ± 0.14 |
| GGUCAGCAAUAUUACGGCGG | -0.828 ± 0.049 | -0.274 ± 0.065 |
| GGUCAGCAAUAUUACGGCGU | 0.348 ± 0.11 | 0.0889 ± 0.12 |
| GGUCAGCAAUAUUACGGCUU | -1.18 ± 0.087 | -0.0465 ± 0.12 |
| GGUCAGCAAUAUUACGGGGG | – | -2.15 ± 0.34 |
| GGUCAGCAAUAUUACGGUAG | -2.15 ± 0.18 | -0.967 ± 0.19 |
| GGUCAGCAAUAUUACGGUUC | 0.308 ± 0.096 | -0.214 ± 0.1 |
| GGUCAGCAAUAUUACGUAGU | -0.367 ± 0.064 | 0.693 ± 0.075 |
| GGUCAGCAAUAUUACGUCAG | -3.99 ± 0.4 | -3.23 ± 0.47 |
| GGUCAGCAAUAUUACGUCCG | -0.0947 ± 0.13 | -0.124 ± 0.19 |
| GGUCAGCAAUAUUACGUCGA | -0.64 ± 0.098 | -0.54 ± 0.1 |
| GGUCAGCAAUAUUACGUCUA | -0.0881 ± 0.073 | 0.0699 ± 0.078 |
| GGUCAGCAAUAUUACGUGUG | -1.39 ± 0.069 | -0.514 ± 0.092 |
| GGUCAGCAAUAUUACGUUCC | -0.328 ± 0.24 | -0.643 ± 0.28 |
| GGUCAGCAAUAUUACGUUGA | -3.12 ± 0.27 | -1.76 ± 0.25 |
| GGUGAGCAAUAUUACGAAUG | -3.14 ± 0.29 | -2.36 ± 0.5 |
| GGUGAGCAAUAUUACGACGC | -0.546 ± 0.19 | -0.0795 ± 0.28 |
| GGUGAGCAAUAUUACGAUCC | – | -0.766 ± 0.35 |
| GGUGAGCAAUAUUACGAUUA | – | -0.938 ± 0.45 |
| GGUGAGCAAUAUUACGCGAA | -2.96 ± 0.14 | -1.65 ± 0.13 |
| GGUGAGCAAUAUUACGCGAC | -3.49 ± 0.29 | -3.12 ± 0.25 |
| GGUGAGCAAUAUUACGCGGU | – | -1.5 ± 0.42 |
| GGUGAGCAAUAUUACGCUAC | -2.34 ± 0.2 | – |

| Sequence | self-splicing fitness (ln) (30 °C) | self-splicing fitness (ln) (37 °C) |
| --- | --- | --- |
| GGUGAGCAAUAUUACGCUGC | -3.91 ± 0.28 | -2.65 ± 0.32 |
| GGUGAGCAAUAUUACGGACG | -0.0602 ± 0.16 | 0.806 ± 0.32 |
| GGUGAGCAAUAUUACGGCCG | -1.15 ± 0.38 | -2.11 ± 0.24 |
| GGUGAGCAAUAUUACGUGAA | -1.76 ± 0.36 | -1.27 ± 0.32 |
| GGUGAGCAAUAUUACGUGCG | -0.62 ± 0.12 | -0.505 ± 0.18 |
| GGUGAGCAAUAUUACGUGUG | -3.28 ± 0.2 | -2.47 ± 0.2 |
| GGUGAGCAAUAUUACGUUAG | -3.01 ± 0.2 | -2.83 ± 0.3 |
| GGUGAGCAAUAUUACGUUAU | -3.23 ± 0.2 | -1.84 ± 0.19 |
| GGUGAGCAAUAUUACGUUUC | -3.36 ± 0.29 | -1.68 ± 0.25 |
| GGUUAGCAAUAUUACGAAUG | -0.2 ± 0.3 | -0.491 ± 0.33 |
| GGUUAGCAAUAUUACGAGAG | -2.64 ± 0.44 | -2.45 ± 0.39 |
| GGUUAGCAAUAUUACGAGCA | -0.943 ± 0.1 | -0.264 ± 0.1 |
| GGUUAGCAAUAUUACGAUGA | -0.915 ± 0.12 | -0.286 ± 0.13 |
| GGUUAGCAAUAUUACGAUUG | -1.56 ± 0.19 | -1.1 ± 0.21 |
| GGUUAGCAAUAUUACGCCCA | -0.993 ± 0.27 | -1.13 ± 0.3 |
| GGUUAGCAAUAUUACGCUAU | -4.15 ± 0.46 | -2.72 ± 0.34 |
| GGUUAGCAAUAUUACGCUCU | -2.24 ± 0.18 | -0.596 ± 0.17 |
| GGUUAGCAAUAUUACGCUUA | -1.58 ± 0.13 | -0.641 ± 0.12 |
| GGUUAGCAAUAUUACGGACU | – | -1.31 ± 0.23 |
| GGUUAGCAAUAUUACGGAGC | -2.27 ± 0.24 | -1.43 ± 0.29 |
| GGUUAGCAAUAUUACGGAGG | -3.02 ± 0.2 | -2.78 ± 0.18 |
| GGUUAGCAAUAUUACGGCAA | 0.963 ± 0.39 | -0.363 ± 0.27 |
| GGUUAGCAAUAUUACGGCAG | -1.83 ± 0.19 | -1.43 ± 0.21 |
| GGUUAGCAAUAUUACGGUAU | -1.55 ± 0.11 | -0.531 ± 0.11 |
| GGUUAGCAAUAUUACGGUGU | -2.18 ± 0.11 | -0.973 ± 0.15 |

| Sequence | self-splicing fitness (ln) (30 °C) | self-splicing fitness (ln) (37 °C) |
| --- | --- | --- |
| GGUUAGCAAUAUUACGUAUA | -1.45 ± 0.14 | -1.24 ± 0.19 |
| GGUUAGCAAUAUUACGUCAG | -3.16 ± 0.47 | – |
| GGUUAGCAAUAUUACGUCUG | -2.1 ± 0.14 | -0.405 ± 0.11 |
| GGUUAGCAAUAUUACGUGAU | -2.18 ± 0.19 | -1.14 ± 0.2 |
| GUAAAGCAAUAUUACGAUGC | -0.312 ± 0.11 | -0.105 ± 0.11 |
| GUAAAGCAAUAUUACGCAAC | – | -0.263 ± 0.42 |
| GUAAAGCAAUAUUACGCACA | 0.186 ± 0.082 | 0.579 ± 0.11 |
| GUAAAGCAAUAUUACGCCGU | -0.433 ± 0.085 | 0.561 ± 0.11 |
| GUAAAGCAAUAUUACGCGUG | -1.05 ± 0.076 | -0.992 ± 0.08 |
| GUAAAGCAAUAUUACGCUUU | -3.46 ± 0.23 | -1.8 ± 0.27 |
| GUAAAGCAAUAUUACGGACA | -0.403 ± 0.085 | 0.623 ± 0.12 |
| GUAAAGCAAUAUUACGGCAG | -1.5 ± 0.15 | -2.25 ± 0.3 |
| GUAAAGCAAUAUUACGGCAU | -0.176 ± 0.067 | -0.287 ± 0.078 |
| GUAAAGCAAUAUUACGGGCC | -1.92 ± 0.25 | -1.05 ± 0.23 |
| GUAAAGCAAUAUUACGGGCG | -0.457 ± 0.12 | -0.386 ± 0.12 |
| GUAAAGCAAUAUUACGUAAG | -1.95 ± 0.1 | -1.2 ± 0.13 |
| GUAAAGCAAUAUUACGUCCC | -1.07 ± 0.19 | 0.449 ± 0.26 |
| GUAAAGCAAUAUUACGUGAG | -2.03 ± 0.084 | -0.98 ± 0.1 |
| GUAAAGCAAUAUUACGUUAG | -1.01 ± 0.057 | -0.896 ± 0.076 |
| GUAAAGCAAUAUUACGUUCC | -2.91 ± 0.18 | 0.158 ± 0.14 |
| GUACAGCAAUAUUACGAAGU | -3.32 ± 0.17 | -1.67 ± 0.18 |
| GUACAGCAAUAUUACGAAUC | -2.65 ± 0.35 | -1.18 ± 0.18 |
| GUACAGCAAUAUUACGACCG | -2.47 ± 0.19 | -0.419 ± 0.14 |
| GUACAGCAAUAUUACGAGUG | -3.17 ± 0.34 | -1.25 ± 0.18 |
| GUACAGCAAUAUUACGAUGC | -1.03 ± 0.12 | -1.06 ± 0.12 |

| Sequence | self-splicing fitness (ln) (30 °C) | self-splicing fitness (ln) (37 °C) |
| --- | --- | --- |
| GUACAGCAAUAUUACGCAGU | -4.74 ± 0.31 | -3 ± 0.24 |
| GUACAGCAAUAUUACGCCCC | -1.32 ± 0.2 | -0.26 ± 0.32 |
| GUACAGCAAUAUUACGCCGG | -3.87 ± 0.39 | -2.45 ± 0.24 |
| GUACAGCAAUAUUACGCCGU | -2.95 ± 0.21 | -1.06 ± 0.16 |
| GUACAGCAAUAUUACGCGCA | -1.07 ± 0.11 | -0.616 ± 0.12 |
| GUACAGCAAUAUUACGCGGC | -1.83 ± 0.34 | -2.11 ± 0.36 |
| GUACAGCAAUAUUACGCUUU | -2.99 ± 0.12 | -1.19 ± 0.12 |
| GUACAGCAAUAUUACGGCAC | -0.68 ± 0.11 | 0.0875 ± 0.12 |
| GUACAGCAAUAUUACGGCAG | -4.02 ± 0.2 | -2.33 ± 0.17 |
| GUACAGCAAUAUUACGGCUG | -3.82 ± 0.21 | -1.38 ± 0.14 |
| GUACAGCAAUAUUACGGUGC | -3.12 ± 0.15 | -2.22 ± 0.18 |
| GUACAGCAAUAUUACGGUUA | -0.862 ± 0.058 | -0.00855 ± 0.057 |
| GUACAGCAAUAUUACGUACU | -2.77 ± 0.14 | -2.79 ± 0.25 |
| GUACAGCAAUAUUACGUAGC | -0.896 ± 0.19 | -2.29 ± 0.25 |
| GUACAGCAAUAUUACGUAUC | -2.87 ± 0.16 | -1.35 ± 0.28 |
| GUACAGCAAUAUUACGUCCA | -2.12 ± 0.13 | -1.23 ± 0.14 |
| GUACAGCAAUAUUACGUCGA | -2.07 ± 0.11 | -1.78 ± 0.12 |
| GUACAGCAAUAUUACGUGAA | -3.94 ± 0.13 | -1.51 ± 0.11 |
| GUACAGCAAUAUUACGUUAC | -3.89 ± 0.36 | -2.27 ± 0.28 |
| GUAGAGCAAUAUUACGAAAC | 0.2 ± 0.34 | -0.546 ± 0.32 |
| GUAGAGCAAUAUUACGAAGG | -1.87 ± 0.31 | – |
| GUAGAGCAAUAUUACGACCG | -1.28 ± 0.2 | -1.98 ± 0.46 |
| GUAGAGCAAUAUUACGACGA | -1.85 ± 0.15 | -0.21 ± 0.16 |

— the supplement of paper PMC7877785
